Results reported in patent publication US20040018580A1, “Synthetic substrates for prostasin” (priority 2002, published 2004).

What was measured:
[1] = biological target: T1, prostasin-mPBP complex (Homo sapiens, UniProt Q16651); assay: Inhibition of complex formation between prostasin and mPBP (western blot); type: binding
T1 construct: made in house; mPBP: purified from mouse seminal vesicle fluid
Experimental: (§1) The procedures were performed according to Chen et al. Briefly, purified recombinant prostasin was incubated with samples from each purification step or the final purified mPBP at 37 degrees C. for 1 hour or for various times as indicated. The binding reaction was stopped by the addition of SDS sample buffer (1×SDS sample buffer=62.5 mM Tris-Hcl at Ph 6.8, 2% (v/v) glycerol, 2% SDS (w/v) and 2% Beta-mercaptoethanol). The reaction mixtures were then boiled for 5 min, and resolved in 10% SDS-polyacrylamide gels. The resolved proteins were then transferred to nitrocellulose membranes, and analyzed with either a prostasin antibody or the mPBP antibody. Signals were detected using an ECL detection procedure with the WestPico reagents (Pierce, Rockford, Ill.) following the manufacturer's protocol. The membrane was then exposed to X-ray film (Midwest Scientific, St. Louis, Mo.) The prostasin antibody was used at 1:2,000 dilution, the mPBP antibody was used at 1:10,000 dilution, and the secondary antibody (goat anti-rabbit IgG, Sigma-Aldrich) was used at 1:10,000 dilution. All antibodies were diluted in 5% non-fat milk in TBS-T (TBS-T=20 mM Tris-Hcl at pH 7.6, 0.14M NaCl and 0.1% Tween-20).
(§2) The purified mPBP was tested for its biochemical activities using the prostasin binding assay. Complex formation between mPBP and purified prostasin was analyzed by western blotting using the mPBP antibody and a prostasin antibody. […] The complex was detected after 30 seconds of incubation and progressed during the incubation time course (60 minutes). […] The complex formation of prostasin and mPBP was used as a control (FIG. 4C, lane 2).
(§3) It has been known that PN-1 can form complexes with various serine proteases, including thrombin. […] We also tested if the complex is pH dependent because prostasins's optimum pH is 9.0. […] We further tested if heparin may have a different effect on the complex formation between prostasin-mPBP versus on that between thrombin-mPBP.

[2] = biological target: T2, prostasin (Homo sapiens, UniProt Q16651); assay: Complex formation of recombinant GST-PN-1 with recombinant prostasin (immunoblot); type: binding; design: made in house; details: for complex formation of GST-PN-1 fusion protein with prostasin: 0.5 micrograms recombinant prostasin, 37 degrees C., 60 minutes
Experimental: To establish if mPBP is indeed protease nexin-1, mouse and human protease nexin-1 (PN-1) cDNA were cloned into the pGEX-6P-1 expression vector. The recombinant protein products have the schistosomal glutathione-S-transferase (GST) fused to t he N-terminus of the PN-1. The GST fusion proteins were affinity-purified using glutathione-conjugated agarose-beads. For each type of recombinant protein, cleared supernatant of cell lysate from one liter of culture was incubated with 1 ml of […] glutathione-beads. The beads were eluted with 1 ml of fresh 10 mM glutathione in 50 mM Tris-Hcl, pH 8.0. Twenty microliters of the eluent were incubated with 0.5 micrograms of recombinant prostasin at 37 degrees C. for 60 minutes in the absence or presence of aprotinin. Both the GST-mPN-1 (FIG. 8, lane 1 alone at 64 kDa) and the GST-hPN-1 (FIG. 8, lanes 2 and 5). […] An immunoreactive band at 30 kDa and two other minor immunoreactive bands at 42 kDa and 60 kDa were likely the products of non-specific degradation of the recombinant PN-1, since no protease inhibitors were added in the cell lysate during purification.

[3] = biological target: T3, thrombin-mPBP complex (Homo sapiens, UniProt P00734); assay: Effect of heparin on complex formation between thrombin and mPBP; type: binding; details: heparin at 0.25 unit/reaction, FIG. 6B
T3 construct: mPBP: purified from mouse seminal vesicle fluid
Description: as §3

[4] = biological target: T2, prostasin; assay: Enzymatic assay with QAR-AMC substrate (residual activity of prostasin); type: biochemical; design: made in house
Experimental: Recombinant human prostasin was purified as described in Chen et al. A synthetic substrate, N-t-Boc-Gln-Ala-Arg-7-amido-4-methyl coumarin (QAR-AMC) was purchased from Sigma-Aldrich. The purified mPBP (concentration range 0-0.4 micromolar) was incubated with prostasin (0.8 micromolar) for 30 mins at 37 degrees C. The binding reaction mixture (20 microliters) was then added to 80 microliters of […] Tris-HCL) pH 8.0/0.1% bovine serum albumin containing the QAR-AMC substrate (final concentration: 100 micromolar) in 96-well microtiter plates (Costar 3903, Cambridge, Mass.). The velocity of substrate hydrolysis was measured using a Wallac 1420 Victor mulitlabel counter at wavelength 355 nm and wavelength 460 nm. The residual activity of prostasin (velocity of the inhibited enzyme reaction/velocity of the uninhibited enzyme reaction) as plotted versus the mPBP concentration.
QAR-AMC was used as a substrate for prostasin to test the inhibitory activity of the purified mPBP. Pprostasin (0.8 micromolar) was incubated with 0, 0.05, 0.1, 0.2 or 0.4 micromolar mPBP at 37 degress C. for 30 mins. The reaction mixture was then to the assay buffer containing a final concentration of 100 micromolar QAR-AMC substrate.

[5] = system: factor Xa; details: cited from earlier work
[6] = biological target: T4, thrombin (Homo sapiens, UniProt P00734); details: cited from earlier work
[7] = biological target: T5, purified recombinant prostasin (Homo sapiens, UniProt Q16651); assay: Prostasin-binding assay (complex formation, western blot)
T5 construct: made in house
Experimental: as §1, §2

[8] = biological target: T4, thrombin; assay: Complex formation between thrombin and mPBP; type: binding
Description: as §3

[9] = biological target: T2, prostasin; assay: Membrane-overlay zymography of prostasin activity; type: biochemical
[10] = binding conditions of increasing pH

T2 sequence (Q16651 33-343): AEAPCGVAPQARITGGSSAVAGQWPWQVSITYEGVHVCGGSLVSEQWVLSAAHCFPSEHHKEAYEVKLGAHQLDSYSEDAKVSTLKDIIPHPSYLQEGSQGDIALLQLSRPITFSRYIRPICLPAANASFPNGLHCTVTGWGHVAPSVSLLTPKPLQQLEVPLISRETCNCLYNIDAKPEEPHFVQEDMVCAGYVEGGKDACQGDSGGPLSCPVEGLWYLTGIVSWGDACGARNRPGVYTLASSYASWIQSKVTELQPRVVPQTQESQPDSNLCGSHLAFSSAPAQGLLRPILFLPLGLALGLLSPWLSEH
T5 sequence (Q16651 33-343): as above

## O=S(=O)(F)Cc1ccccc1 [PMSF]
[1]; FIG. 4C
  effect on prostasin-mPBP complex formation: inhibited

## aprotinin [reference compound]
[1]; FIG. 4C
  effect on prostasin-mPBP complex formation: inhibited
[2]; in the presence of aprotinin, FIG. 8 lanes 3 and 6
  effect on GST-PN-1/prostasin complex formation: inhibited

## heparin
[3]
  effect on thrombin-mPBP complex formation: not between thrombin-PMP
[4]; pre-incubation of mPBP and heparin, QAR-AMC substrate
  effect on prostasin inhibition by mPBP: able to prevent prostasin inhibition by mPBP
[1]; FIG. 4C
  effect on prostasin-mPBP complex formation: inhibited
[1]; heparin at 0.25 unit/reaction, FIG. 6B
  effect on prostasin-mPBP complex formation: completely abolished

B1: GST-mPN-1: recombinant mouse PN-1 with glutathione-S-transferase fused to the N-terminus (protein)
chain: SQFNSLSLEELGSNTGIQVFNQIIKSRPHENVVVSPHGIASILGMLQLGADGKTKKQLSTVMRYNVNGVGKVLKKINKAIVSKKNKDIVTVANAVFLRNGFKMEVPFAVRNKDVFQCEVQNVNFQDPASASESINFWVKNETRGMIDNLLSPNLIDGALTRLVLVNAVYFKGLWKSRFQPESTKKRTFVAGDGKSYQVPMLAQLSVFRSGSTRTPNGLWYNFIELPYHGESISMLIALPTESSTPLSAIIPHITTKTIDSWMNTMVPKRMQLVLPKFTAVAQTDLKEPLKALGITEMFEPSKANFTKITRSESLHVSHILQKAKIEVSEDGTKASAATTAILIARSSPPWFIVDRPFLFSIRHNPTGAILFLGQVNKP
modifications: left off: a dimerising Fc or GST
notes: recombinant mouse PN-1 with glutathione-S-transferase fused to the N-terminus
[2]
  complex formation of GST-PN-1 fusion protein with prostasin: form a 100 kDa complex

B2: PN-1: protease nexin-1, a serine protease inhibitor (serpin) (protein)
chain: B1 chain
[5]
  inhibitory activity of PN-1 to factor Xa in the presence of heparin: enhanced
[6]
  inhibitory activity of PN-1 to thrombin in the presence of heparin: enhanced

B3: mPBP: mouse prostasin-binding protein purified from mouse seminal vesicle fluid, 45 kDa; identified as the serpin protease nexin-1 (protein)
chain: B1 chain
[4]; prostasin 0.8 micromolar with 0-0.4 micromolar mPBP, 37 degrees C., 30 mins, 100 micromolar QAR-AMC
  inhibition of prostasin's activity: inhibited in a dose dependent manner
[7]; [10]
  pH dependence of complex formation of mPBP and prostasin: increased with higher pH
[7]; purified mPBP, western blot
  complex formation with prostasin: formed a complex with prostasin
[7]; time course up to 60 minutes, 37 degrees C.
  incubation time after which the prostasin-mPBP complex was detected: 30 s
[8]; [10]
  pH dependence of complex formation of mPBP and thrombin: somewhat decreased with increasing pH
[8]; purified mPBP
  complex formation with thrombin: formed a complex with prostasin as well as thrombin
[9]
  inhibition of prostasin's activity by membrane-overlay zymography: inhibits prostasin's activity

B4: GST-hPN-1: recombinant human PN-1 with glutathione-S-transferase fused to the N-terminus (protein)
chain: SHFNPLSLEELGSNTGIQVFNQIVKSRPHDNIVISPHGIASVLGMLQLGADGRTKKQLAMVMRYGVNGVGKILKKINKAIVSKKNKDIVTVANAVFVKNASEIEVPFVTRNKDVFQCEVRNVNFEDPASACDSINAWVKNETRDMIDNLLSPDLIDGVLTRLVLVNAVYFKGLWKSRFQPENTKKRTFVAADGKSYQVPMLAQLSVFRCGSTSAPNDLWYNFIELPYHGESISMLIALPTESSTPLSAIIPHISTKTIDSWMSIMVPKRVQVILPKFTAVAQTDLKEPLKVLGITDMFDSSKANFAKITTGSENLHVSHILQKAKIEVSEDGTKASAATTAILIARSSPPWFIVDRPFLFFIRHNPTGAVLFMGQINKP
modifications: left off: a dimerising Fc or GST
notes: recombinant human PN-1 with glutathione-S-transferase fused to the N-terminus
[2]
  complex formation of GST-PN-1 fusion protein with prostasin: form a 100 kDa complex
